US20210138058A1

Molecular target: human TLR5 (HEK-Blue hTLR5 reporter cells) (human) (UniProt O60602)
Test: cell-based or functional assay

Sequence of UniProt O60602 (O60602 21-858): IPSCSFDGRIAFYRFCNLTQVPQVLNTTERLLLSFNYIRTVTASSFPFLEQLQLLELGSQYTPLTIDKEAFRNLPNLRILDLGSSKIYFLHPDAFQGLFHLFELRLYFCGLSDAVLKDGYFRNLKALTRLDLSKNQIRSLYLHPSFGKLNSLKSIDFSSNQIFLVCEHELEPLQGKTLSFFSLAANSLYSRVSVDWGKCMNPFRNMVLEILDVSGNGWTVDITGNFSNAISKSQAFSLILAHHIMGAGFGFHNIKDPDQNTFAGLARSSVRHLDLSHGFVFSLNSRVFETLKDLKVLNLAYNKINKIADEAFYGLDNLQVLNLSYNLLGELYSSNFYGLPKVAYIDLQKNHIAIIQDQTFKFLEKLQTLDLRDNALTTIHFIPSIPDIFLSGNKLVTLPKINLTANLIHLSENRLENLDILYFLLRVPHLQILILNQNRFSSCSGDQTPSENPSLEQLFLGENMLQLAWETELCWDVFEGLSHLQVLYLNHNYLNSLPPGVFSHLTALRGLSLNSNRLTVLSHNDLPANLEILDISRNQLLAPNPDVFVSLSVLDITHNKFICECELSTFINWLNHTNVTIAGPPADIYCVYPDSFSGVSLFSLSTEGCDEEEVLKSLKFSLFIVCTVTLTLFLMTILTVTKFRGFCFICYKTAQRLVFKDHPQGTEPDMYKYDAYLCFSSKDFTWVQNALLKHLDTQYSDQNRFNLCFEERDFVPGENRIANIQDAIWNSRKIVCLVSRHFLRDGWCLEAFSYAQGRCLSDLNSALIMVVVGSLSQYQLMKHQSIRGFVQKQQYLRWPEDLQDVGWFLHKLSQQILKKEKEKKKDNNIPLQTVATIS

Recombinant purified flagellin protein FlaAMRx0518 (Enterococcus gallinarum MRx0518 flagellin, N-terminal 6xHis tag) (ligand)
potency of TLR5 response against FlaADSM100110 (HEK-Blue hTLR5 SEAP reporter) (fold against FlaADSM100110): 5
